# In IntAct's records for PubMed 17891154:
# Target: vps29_human VPS29 (UniProt Q9UBQ0)
row,Substance,effect of a mutation on the interaction
1,Vacuolar protein sorting-associated protein 35 (Homo sapiens) (from UniProt Q96QK1) F534D;F541D,disrupting interaction strength
2,Vacuolar protein sorting-associated protein 35 (Homo sapiens) (from UniProt Q96QK1) H769A;N772A;H776A,disrupting interaction strength
3,Vacuolar protein sorting-associated protein 35 (Homo sapiens) (from UniProt Q96QK1) L579D;R582D;Q586A;L589D,disrupting interaction strength
4,Vacuolar protein sorting-associated protein 35 (Homo sapiens) (from UniProt Q96QK1) N725A;Y729A,disrupting interaction strength
5,Vacuolar protein sorting-associated protein 35 (Homo sapiens) (from UniProt Q96QK1) T629D;L630A;G633D;R637D,disrupting interaction strength
6,Vacuolar protein sorting-associated protein 35 (Homo sapiens) (from UniProt Q96QK1) T672D;H675D,disrupting interaction strength
